Columns and labels:
[1] = molecular target: 新冠病毒S抗原 (on VSV-SARS-CoV-2 pseudovirus, wild type) (新型冠状病毒 (2019-nCoV / SARS-CoV-2), UniProt P0DTC2 14-1273); assay: cell-based or functional assay
带有组氨酸标签的S蛋白RBD = 带有组氨酸标签的S蛋白RBD (新型冠状病毒 (2019-nCoV / SARS-CoV-2), UniProt P0DTC2 319-541)

Binder	中和滴度(半数中和浓度，NC50), 2019-nCoV假病毒, Hela-hACE2, luciferase [1] [µg/mL]	Kd (带有组氨酸标签的S蛋白RBD) [nM]
双特异性抗体BS-mAb-1 (bispecific antibody) heavy: not shown light: DIQMTQSPLSLPVTPGEPASISCRSSQSLLDSDDGNTYLDWYLQKPGQSPQLLIYTLSYRASGVPDRFSGSGSGTDFTLKISRVEAEDVGVYYCMQRIEFPLTFGGGTKVEIKGGGGSGGGGSDIVMTQSPSFLSASVGDRVTITCRASQGISSYLAWYQQKPGKAPKLLIYAASTLQSGVPSRFSGSGSGTEFTLTISSLQPEDFATYYCQQLNSYPPYTFGQGTKLEIKRTVAAPSVFIFPPSDEQLKSGTASVVCLLNNFYPREAKVQWKVDNALQSGNSQESVTEQDSKDSTYSLSSTLTLSKADYEKHKVYACEVTHQGLSSPVTKSFNRGEC	0.119	–
双特异性抗体BS-mAb-2 (bispecific antibody) heavy: not shown light: DIVMTQSPSFLSASVGDRVTITCRASQGISSYLAWYQQKPGKAPKLLIYAASTLQSGVPSRFSGSGSGTEFTLTISSLQPEDFATYYCQQLNSYPPYTFGQGTKLEIKRTVAAPSVFIFPPSDEQLKSGTASVVCLLNNFYPREAKVQWKVDNALQSGNSQESVTEQDSKDSTYSLSSTLTLSKADYEKHKVYACEVTHQGLSSPVTKSFNRGECS	0.048	–
单抗B38 (antibody, V domains shown) VH: EVQLVESGGGLVQPGGSLRLSCAASGFIVSSNYMSWVRQAPGKGLEWVSVIYSGGSTYYADSVKGRFTISRHNSKNTLYLQMNSLRAEDTAVYYCAREAYGMDVWGQGTTVTVSS VL: DIVMTQSPSFLSASVGDRVTITCRASQGISSYLAWYQQKPGKAPKLLIYAASTLQSGVPSRFSGSGSGTEFTLTISSLQPEDFATYYCQQLNSYPPYTFGQGTKLEIK	0.681	22.5

Reference: patent publication CN113563475A (INST MICROBIOLOGY CAS, dated 2021)
